Reference: patent publication US10618965 (dated 2020)

Biological target: T1, mouse FcRn (mouse, UniProt Q61559)
T1 chain 1: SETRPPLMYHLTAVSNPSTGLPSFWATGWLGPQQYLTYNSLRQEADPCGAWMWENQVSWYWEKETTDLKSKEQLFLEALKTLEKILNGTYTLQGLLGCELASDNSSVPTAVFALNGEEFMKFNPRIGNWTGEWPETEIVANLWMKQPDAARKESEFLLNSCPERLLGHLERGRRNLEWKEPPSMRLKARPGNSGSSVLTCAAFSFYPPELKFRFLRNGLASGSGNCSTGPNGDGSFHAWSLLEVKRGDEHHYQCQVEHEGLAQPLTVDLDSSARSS
T1 chain 2: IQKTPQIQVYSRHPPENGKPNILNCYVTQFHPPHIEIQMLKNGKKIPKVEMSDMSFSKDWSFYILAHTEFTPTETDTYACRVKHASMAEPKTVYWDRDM
Assay: SPR, pH 7.0

B1: mIgG1 (antibody)
chain 1: DVQLQESGPVLVKPSQSLSLTCTVTGYSITSDHAWSWIRQFPGNKLEWMGYISYSGITTYNPSLKSRISITRDTSKNQFFLQLNSVTTGDTSTYYCARSLARTTAMDYWGQGTSVTVSSAKTTPPSVYPLAPGSAAQTNSMVTLGCLVKGYFPEPVTVTWNSGSLSSGVHTFPAVLQSDLYTLSSSVTVPSSTWPSETVTCNVAHPASSTKVDKKIVPRDCGCKPCICTVPEVSSVFIFPPKPKDVLTITLTPKVTCVVVDISKDDPEVQFSWFVDDVEVHTAQTQPREEQFNSTFRSVSELPIMHQDWLNGKEFKCRVNSAAFPAPIEKTISKTKGRPKAPQVYTIPPPKEQMAKDKVSLTCMITDFFPEDITVEWQWNGQPAENYKNTQPIMDTDGSYFVYSKLNVQKSNWEAGNTFTCSVLHEGLHNHHTEKSLSHSPGK
chain 2: not shown
  binding result: no binding
